How the values were obtained:
ParB(E78Q) [1] = target: T1, ParB(E78Q) (Bacillus subtilis, UniProt P26497, E78Q); assay: ITC; also N-gate cross-linking and BLI DNA loading; no appreciable hydrolysis; format: binding
T1 construct: gene spo0J; full-length, untagged
T1 sequence (P26497 1-282 E78Q): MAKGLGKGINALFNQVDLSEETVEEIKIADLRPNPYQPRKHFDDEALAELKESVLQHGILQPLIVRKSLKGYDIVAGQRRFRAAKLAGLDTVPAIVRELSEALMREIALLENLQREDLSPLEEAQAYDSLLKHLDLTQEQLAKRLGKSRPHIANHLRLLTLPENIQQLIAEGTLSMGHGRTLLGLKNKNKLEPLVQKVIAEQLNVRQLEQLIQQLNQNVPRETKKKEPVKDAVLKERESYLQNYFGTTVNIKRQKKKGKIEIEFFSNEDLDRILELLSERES

ParB(E111Q) [2] = target: T2, ParB(E111Q) (Bacillus subtilis, UniProt P26497, E111Q); assay: as above; format: binding
T2 construct: gene spo0J; full-length, untagged
T2 sequence (P26497 1-282 E111Q): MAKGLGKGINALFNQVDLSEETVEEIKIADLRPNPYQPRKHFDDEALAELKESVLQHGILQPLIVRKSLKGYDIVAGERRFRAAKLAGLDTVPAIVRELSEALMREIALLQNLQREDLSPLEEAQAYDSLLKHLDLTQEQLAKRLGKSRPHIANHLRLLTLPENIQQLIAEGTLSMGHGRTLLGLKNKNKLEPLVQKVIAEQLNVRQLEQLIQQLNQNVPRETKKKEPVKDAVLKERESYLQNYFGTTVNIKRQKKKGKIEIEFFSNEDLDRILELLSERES

ParB [3] = target: T3, ParB (Bacillus subtilis, UniProt P26497); assay: ITC; also CTP hydrolysis (malachite green), N-gate cross-linking and BLI DNA loading; format: binding
T3 construct: gene spo0J; full-length, untagged
T3 sequence (P26497 1-282): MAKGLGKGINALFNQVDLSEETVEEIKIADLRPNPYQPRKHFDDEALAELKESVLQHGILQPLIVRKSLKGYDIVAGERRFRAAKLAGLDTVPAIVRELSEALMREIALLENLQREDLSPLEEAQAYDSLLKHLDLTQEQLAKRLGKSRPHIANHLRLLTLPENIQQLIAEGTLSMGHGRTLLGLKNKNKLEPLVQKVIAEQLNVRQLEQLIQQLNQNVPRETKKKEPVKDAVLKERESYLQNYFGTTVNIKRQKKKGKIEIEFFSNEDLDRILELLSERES

ParB(E111Q) [4] = target: T2, ParB(E111Q); assay: N-gate closure by BMOE cross-linking (T22C); BLI DNA loading; format: biochemical
ParB(E78Q) [5] = target: T1, ParB(E78Q); assay: as above; format: biochemical
ParB [6] = target: T3, ParB; assay: BLI of ParB loading on and dissociation from parS DNA with nucleotide; N-gate cross-linking; format: biochemical
[7] = target: T4, ParB(T22C, E78Q)-HT, P26497; assay: in vivo BMOE cysteine cross-linking (SDS-PAGE, HaloTag TMR in-gel fluorescence, band quantification); conditions: chain shown with the change, read off a plot
T4 chain: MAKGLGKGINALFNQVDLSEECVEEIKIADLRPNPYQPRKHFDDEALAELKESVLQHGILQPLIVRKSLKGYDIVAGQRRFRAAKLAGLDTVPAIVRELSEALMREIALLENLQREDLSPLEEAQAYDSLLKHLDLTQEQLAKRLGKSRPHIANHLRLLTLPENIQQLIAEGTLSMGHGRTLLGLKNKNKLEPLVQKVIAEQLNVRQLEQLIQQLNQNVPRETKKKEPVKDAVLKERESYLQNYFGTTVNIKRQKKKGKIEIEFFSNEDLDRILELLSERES

[8] = target: the molecule itself; assay: cross-linking; in vitro BMOE (1 mM) cysteine cross-linking, 10 uM ParB, with or without 1 mM CTP or CTPγS and 1 uM 40-bp parS DNA, 150 mM NaCl, 50 mM tris-HCl pH 7.5, 5 mM MgCl2, room temperature; SDS-PAGE, Coomassie
[9] = target: T5, ParB(T22C, E111Q)-HT, P26497; assay: in vivo BMOE cysteine cross-linking (SDS-PAGE, HaloTag TMR in-gel fluorescence, band quantification); conditions: chain shown with the change, read off a plot
T5 chain: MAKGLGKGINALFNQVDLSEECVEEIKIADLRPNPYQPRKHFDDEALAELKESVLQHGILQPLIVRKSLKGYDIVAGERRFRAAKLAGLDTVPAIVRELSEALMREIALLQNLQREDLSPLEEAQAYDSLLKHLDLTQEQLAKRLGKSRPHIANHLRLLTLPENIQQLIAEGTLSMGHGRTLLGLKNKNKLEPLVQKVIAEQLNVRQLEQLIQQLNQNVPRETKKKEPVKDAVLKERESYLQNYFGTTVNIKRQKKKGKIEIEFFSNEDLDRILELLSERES

[10] = target: T6, ParB(R105C, H133C, E78Q)-HT, P26497; assay: as above; conditions: chain shown with the change, Inter XL plus Inter 2XL species, read off a plot
T6 chain: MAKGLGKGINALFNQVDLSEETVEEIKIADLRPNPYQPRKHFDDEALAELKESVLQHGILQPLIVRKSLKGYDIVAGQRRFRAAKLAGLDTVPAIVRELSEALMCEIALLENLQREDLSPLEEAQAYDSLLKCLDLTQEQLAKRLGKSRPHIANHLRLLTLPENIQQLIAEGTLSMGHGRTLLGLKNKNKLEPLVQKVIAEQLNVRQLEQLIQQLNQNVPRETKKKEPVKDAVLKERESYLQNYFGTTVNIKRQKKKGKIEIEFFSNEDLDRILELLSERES

[11] = target: T7, ParB(R105C, H133C, E111Q)-HT, P26497; assay: as above; conditions: chain shown with the change, Inter XL plus Inter 2XL species, read off a plot
T7 chain: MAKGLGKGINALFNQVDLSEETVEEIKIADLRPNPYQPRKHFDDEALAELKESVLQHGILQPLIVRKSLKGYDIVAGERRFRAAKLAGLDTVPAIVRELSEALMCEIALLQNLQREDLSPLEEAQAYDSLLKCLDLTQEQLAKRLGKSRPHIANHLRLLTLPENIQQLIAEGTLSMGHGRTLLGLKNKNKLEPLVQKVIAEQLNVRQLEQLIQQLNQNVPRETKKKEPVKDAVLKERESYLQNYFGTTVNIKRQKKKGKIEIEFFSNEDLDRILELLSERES

[12] = parS: Δ8 (strain lacking the 8 parS sites)

`Nc1ccn([C@@H]2O[C@H](COP(=O)(O)OP(=O)(O)OP(=O)(O)O)[C@@H](O)[C@H]2O)c(=O)n1` [CTP] showed a Kd (ParB(E78Q) [1]) of 5 to 8 µM, a Kd (ParB(E111Q) [2]) of 5 to 8 µM and a Kd (ParB [3]) of 5 to 8 µM.

For `Nc1ccn([C@@H]2O[C@H](COP(=O)(O)OP(=O)(O)OP(O)(O)=S)[C@@H](O)[C@H]2O)c(=O)n1` [CTPγS], the “N-gate closure by BMOE cross-linking (T22C); BLI DNA loading” value (ParB(E111Q) [4]) was “we found that the EQ mutants supported N-gate closure equally well with CTP and CTPγS”, the “N-gate closure by BMOE cross-linking (T22C); BLI DNA loading” value (ParB(E78Q) [5]) was “we found that the EQ mutants supported N-gate closure equally well with CTP and CTPγS” and the “BLI of ParB loading on and dissociation from parS DNA with nucleotide; N-gate cr” value (ParB [6]) was “differences in the dissociation rates between wild-type and EQ proteins were eliminated when CTPγS was used instead of CTP”.

B1: ParB(T22C, E78Q) (natural protein, B. subtilis, UniProt P26497 1-282, looked up)
chain: MAKGLGKGINALFNQVDLSEECVEEIKIADLRPNPYQPRKHFDDEALAELKESVLQHGILQPLIVRKSLKGYDIVAGQRRFRAAKLAGLDTVPAIVRELSEALMREIALLENLQREDLSPLEEAQAYDSLLKHLDLTQEQLAKRLGKSRPHIANHLRLLTLPENIQQLIAEGTLSMGHGRTLLGLKNKNKLEPLVQKVIAEQLNVRQLEQLIQQLNQNVPRETKKKEPVKDAVLKERESYLQNYFGTTVNIKRQKKKGKIEIEFFSNEDLDRILELLSERES
notes: ParB, B. subtilis, untagged recombinant protein, CTP hydrolysis-defective mutant with the T22C reporter cysteine; source: E. coli BL21-Gold (DE3), purified (ammonium sulfate, heparin, HiTrap SP, Superdex 200)
B1 was tested, and the other: fraction of cross-linked dimers ([7]; N-N XL species) was 0.57, the other: fraction of cross-linked species ([7]; parS: All) was 0.72 and the other: fraction of cross-linked species [7, 12] was 0.52. B1: binds [8].

B2: ParB(T22C, E111Q) (natural protein, B. subtilis, UniProt P26497 1-282, looked up)
chain: MAKGLGKGINALFNQVDLSEECVEEIKIADLRPNPYQPRKHFDDEALAELKESVLQHGILQPLIVRKSLKGYDIVAGERRFRAAKLAGLDTVPAIVRELSEALMREIALLQNLQREDLSPLEEAQAYDSLLKHLDLTQEQLAKRLGKSRPHIANHLRLLTLPENIQQLIAEGTLSMGHGRTLLGLKNKNKLEPLVQKVIAEQLNVRQLEQLIQQLNQNVPRETKKKEPVKDAVLKERESYLQNYFGTTVNIKRQKKKGKIEIEFFSNEDLDRILELLSERES
notes: as for B1
B2 was tested, and the other: fraction of cross-linked dimers ([9]; N-N XL species) was 0.36, the other: fraction of cross-linked species ([9]; parS: All) was 0.49 and the other: fraction of cross-linked species [9, 12] was 0.45. B2: binds [8].

B3: ParB-HT (wt) R105C; H133C; E78Q (protein)
chain: MAKGLGKGINALFNQVDLSEETVEEIKIADLRPNPYQPRKHFDDEALAELKESVLQHGILQPLIVRKSLKGYDIVAGQRRFRAAKLAGLDTVPAIVRELSEALMCEIALLENLQREDLSPLEEAQAYDSLLKCLDLTQEQLAKRLGKSRPHIANHLRLLTLPENIQQLIAEGTLSMGHGRTLLGLKNKNKLEPLVQKVIAEQLNVRQLEQLIQQLNQNVPRETKKKEPVKDAVLKERESYLQNYFGTTVNIKRQKKKGKIEIEFFSNEDLDRILELLSERES
Work on B3 yielded an other: fraction of cross-linked dimers [10] of 0.77.

B4: ParB-HT (wt) R105C; H133C; E111Q (protein)
chain: MAKGLGKGINALFNQVDLSEETVEEIKIADLRPNPYQPRKHFDDEALAELKESVLQHGILQPLIVRKSLKGYDIVAGERRFRAAKLAGLDTVPAIVRELSEALMCEIALLQNLQREDLSPLEEAQAYDSLLKCLDLTQEQLAKRLGKSRPHIANHLRLLTLPENIQQLIAEGTLSMGHGRTLLGLKNKNKLEPLVQKVIAEQLNVRQLEQLIQQLNQNVPRETKKKEPVKDAVLKERESYLQNYFGTTVNIKRQKKKGKIEIEFFSNEDLDRILELLSERES
Work on B4 yielded an other: fraction of cross-linked dimers [11] of 0.2.

B5: ParB(R105C, H133C) (natural protein, B. subtilis, UniProt P26497 1-282, looked up)
chain: MAKGLGKGINALFNQVDLSEETVEEIKIADLRPNPYQPRKHFDDEALAELKESVLQHGILQPLIVRKSLKGYDIVAGERRFRAAKLAGLDTVPAIVRELSEALMCEIALLENLQREDLSPLEEAQAYDSLLKCLDLTQEQLAKRLGKSRPHIANHLRLLTLPENIQQLIAEGTLSMGHGRTLLGLKNKNKLEPLVQKVIAEQLNVRQLEQLIQQLNQNVPRETKKKEPVKDAVLKERESYLQNYFGTTVNIKRQKKKGKIEIEFFSNEDLDRILELLSERES
notes: ParB, B. subtilis, untagged recombinant protein with cysteines at the N-M interface; source: E. coli BL21-Gold (DE3), purified (ammonium sulfate, heparin, HiTrap SP, Superdex 200)
B5: binds [8].

B6: ParB(T22C) (natural protein, B. subtilis, UniProt P26497 1-282, looked up)
chain: MAKGLGKGINALFNQVDLSEECVEEIKIADLRPNPYQPRKHFDDEALAELKESVLQHGILQPLIVRKSLKGYDIVAGERRFRAAKLAGLDTVPAIVRELSEALMREIALLENLQREDLSPLEEAQAYDSLLKHLDLTQEQLAKRLGKSRPHIANHLRLLTLPENIQQLIAEGTLSMGHGRTLLGLKNKNKLEPLVQKVIAEQLNVRQLEQLIQQLNQNVPRETKKKEPVKDAVLKERESYLQNYFGTTVNIKRQKKKGKIEIEFFSNEDLDRILELLSERES
notes: ParB, B. subtilis, untagged recombinant protein with a cysteine at the N-gate; source: E. coli BL21-Gold (DE3), purified (ammonium sulfate, heparin, HiTrap SP, Superdex 200)
B6: binds [8].

B7: ParB(A102C, H133C) (natural protein, B. subtilis, UniProt P26497 1-282, looked up)
chain: MAKGLGKGINALFNQVDLSEETVEEIKIADLRPNPYQPRKHFDDEALAELKESVLQHGILQPLIVRKSLKGYDIVAGERRFRAAKLAGLDTVPAIVRELSECLMREIALLENLQREDLSPLEEAQAYDSLLKCLDLTQEQLAKRLGKSRPHIANHLRLLTLPENIQQLIAEGTLSMGHGRTLLGLKNKNKLEPLVQKVIAEQLNVRQLEQLIQQLNQNVPRETKKKEPVKDAVLKERESYLQNYFGTTVNIKRQKKKGKIEIEFFSNEDLDRILELLSERES
notes: as for B5
B7: binds [8].
